Data from article PMC8840469, “Directed Evolution of a Nonheme Diiron N-oxygenase AzoC for Improving Its Catalytic Efficiency toward Nitrogen Heterocycle Substrates” (Molecules, 2022).

Tests used:
AzoC = test system: T1, AzoC; assay: HPLC, initial velocity, Michaelis-Menten fit; type: biochemical, Streptomyces chattanoogensis; conditions: 30 °C, 1 h; 5.2 μM enzyme; substrate 0.05-2 mM; general in vitro reaction (not restated for kinetics): NADH 0.1 mM, PMS 0.75 mM, 20 mM HEPES pH 7.5, but 3 μM enzyme; read-out: Substrate: 2-methoxypyrimidin-5-amine / Km
T1 construct: nonheme diiron enzyme
Description: (§1) HPLC, initial velocity, Michaelis-Menten fit on AzoC

COc1ncc(N)cn1 = test system: T2, COc1ncc(N)cn1; assay: HPLC, initial velocity, Michaelis-Menten fit; type: biochemical, Streptomyces chattanoogensis; conditions: 30 °C, 1 h, 5.2 μM enzyme, substrate 0.05-2 mM, general in vitro reaction (not restated for kinetics): NADH 0.1 mM, PMS 0.75 mM, 20 mM HEPES pH 7.5
T2 construct: nonheme diiron enzyme
Description: as §1

In the case of `COc1ncc(N)cn1` [compound 3, 2-methoxypyrimidin-5-amine], the Km (AzoC) is reported as 510 ± 59 µM.
AzoC (Streptomyces chattanoogensis) showed a Km (COc1ncc(N)cn1) of 650 ± 120 µM, a kcat (COc1ncc(N)cn1) of 0.018 ± 0.0014 s⁻¹ and a kcat/Km (COc1ncc(N)cn1) of 27.7 M⁻¹ s⁻¹.
